This is an account of results in patent US5567302A, “Electrochemical system for rapid detection of biochemical agents that catalyze a redox potential change” (priority 1995, dated 1996).

In the data set the test system is OC[C@H]1O[C@@H](Oc2c[nH]c3ccc(Br)c(Cl)c23)[C@H](O)[C@@H](O)[C@H]1O. Kind of data set: purified protein, by the assay type. The following applies: other: β-D-galactosidase substrate; stated when explaining why the standard curve levels off at high enzyme amounts.

For “biotinylated β-D-galactosidase (Escherichia coli K-12)”, the Km is 3000 µM.

By Km is commonly meant the concentration of substrate that gives half-maximal velocity.
